This is an account of results in patent US20250295734A1, “ANTICOAGULANT PROTEINS AND THEIR USE FOR TREATING DISEASES ASSOCIATED WITH THE ACTIVATION OF NEUTROPHILS” (BIOXODES, priority 2018, published 2025).

The test system of data set [1] is polymorphonuclear neutrophils (PMNs). The data set can be described thus: Laser-induced vessel wall injury: PMN accumulation (anti-Ly6G). In kind it is in vivo, mice (C57BL/6JRj). Particulars: iv bolus 20.5 mg/kg + infusion 3.7 mg/kg/h. Here is the method: Ir-CPI was administered intravenously as a bolus (20.5 mg/kg) immediately followed by a continuous infusion at a rate of 3.7 mg/kg/h (see Table 1 below). Due to fast distribution and elimination of Ir-CPI in the mice (t1/2α=14 min and t1/2β=236 min), the combination of the bolus and the infusion was chosen in order to maintain a constant Ir-CPI concentration into the blood.
Vessel wall injury was induced with a Micropoint Laser System (Photonics Instruments) focused through the microscope objective, parfocal with the focal plane and aimed at the vessel wall, as previously described (Dubois et al., 2006). Typically, 1 or 2 pulses were required to induce vessel wall injury.
Multiple thrombi were studied in a single mouse, with new thrombi formed upstream of earlier thrombi to avoid any contribution from thrombi generated earlier in the animal under study. Laser-beam injuries were done at various time after the start of test-item administration (+5 min up to about 150 min after bolus administration of Ir-CPI or NaCl (control)).
Image analysis was performed using Slidebook 4.1 (Intelligent Imaging Innovations). Fluorescence data were captured digitally at up to 50 frames per second and analyzed as previously described (Falati et al., 2002). The kinetics of thrombus formation were analyzed by determining median fluorescence values over time in a minimum number of 20 thrombi.
Detection of PMNs in vivo was performed using PE-labelled anti-Ly6G antibody.
To determine whether Ir-CPI has an impact on the accumulation of PMNs at the site of injury, the accumulation of PMNs on the injured vessel wall was monitored using a PE-fluorescently labeled antibody directed against Ly6G (FIG. 5).

The next data set has as its target Factor XIa (Homo sapiens, UniProt P03951). Particulars: cited from earlier work.
Data set [2] concerns neutrophils isolated from bone marrow of femurs of mice. As to the kind of experiment: Neutrophil activation following incubation with TNFα (flow cytometry). In kind it is cell-based, mice (C57BL/6). Here is the method:
Neutrophils were isolated from the bone marrow of femurs of mice (C57BL/6) as previously described (Hu 2012), using FR-1-coupled magnetic beads (anti-Ly6G Microbead Kit, Miltenyi Biotec). For activation with TFNα, cells were harvested, centrifugated and incubated during 30 min with or without 2 ng/ml of TNFα in Hanks solution (Gibco). Next, neutrophils were incubated with Ir-CPI (0.65 or 2 μM) in Hanks solution (1 h at 37° C.). For activation with ATP, cells were harvested, centrifugated and incubated with ATP 10 μM and Ir-CPI (0.65 or 2 μM) in Hanks solution (1 h at 37° C.). After washing of cells, expression of CD11b, activated CD11b or Ly6G was assessed by flow cytometry (Beckman Coulter Gallios). Antibodies used for neutrophil identification and activation analyses were IRR IgG1-FITC (irrelevant antibody), anti-CD45-APC, anti-Ly6G-PE and anti-CD11b-FITC or Alexa Fluor 647 anti-activated CD11b-. Analysis of results was performed using the Kaluza software (Beckman Coulter). […]
Neutrophils isolated from bone marrow of femurs of mice were submitted to different in vitro experimental conditions (untreated control, priming with TNFα and/or incubation with Ir-CPI) to assess the effect of Ir-CPI on their activation status. The activation status was assessed by analyzing the percentage of CD11b expression at the surface of neutrophils (FIG. 16).
On the technique in general: Flow cytometry measures light scatter and fluorescence of single cells or particles in a stream.

For data set [3], the system named is extrinsic or common pathway. Particulars: in vitro; cited from earlier work.
Data set [4] can be described thus: Dissolution in NaCl 0.9% (solubility limit). The format is physicochemical. Here is the method: Ir-CPI was freshly prepared on the testing day by dissolution in NaCl 0.9% to reach the concentration of 50 mg/mL (corresponding to the maximal concentration to reach to avoid solubility issues).
Data set [5] is described as follows: Tail bleeding time assessment. In kind it is in vivo, mice (C57BL/6JRj). Here is the method:
Tail bleeding time assessment under NaCl or Ir-CPI treatment (Low or High dose) was performed as previously described (Mezouar et al., 2015) on anesthetized wild-type (i.e. cancer-free) or cancer-bearing mice. Briefly, a 1- to 3-mm portion of the distal tail was removed from mice; the tail was immersed in isotonic saline (37° C.), and the time to complete cessation of blood flow recorded. The bleeding time was monitored for a maximum of 10 min.

Data set [6] in a line: Quantification of Ir-CPI in plasma samples by ELISA. The format is in vivo, mice (C57BL/6JRj). Particulars: iv bolus 20.5 mg/kg + infusion 3.7 mg/kg/h; after about 150 min of procedure; Mean±SEM, n=5. Here is the method:
Plasma (around 250 μL) was centrifuged at 18-22° C./at 2500 g during 15 min. Plasma was centrifuged again (18-22° C. at 2500 g during 15 min) and was stored into a polypropylene tube at −80° C. Plasma samples were later sent frozen on dry ice for dosage of the circulating concentration of Ir-CPI by ELISA.
The quantification of circulating Ir-CPI in the plasma samples was assessed by ELISA at Eurofins, ADME Bioanalyses (Vergèze, France). A sandwich immuno-assay was carried out using two anti-Ir-CPI antibodies. The capture monoclonal antibody (Ir-CPI3) was coated to microtitration plates (Nunc, ThermoFischer Scientific, USA) at 1 μg/mL overnight at 4° C. in PBS (Hyclone, USA). Wells were blocked with PBS BSA 2% (Sigma-Aldrich, USA) at room temperature (RT) for 1 h and were then washed. Samples were added into the wells and incubated for 2 h at RT. The biotinylated detection antibody (L39-biotin), previously diluted in PBS BSA 1% (Sigma-Aldrich, USA), was added to the wells and complemented with streptavidin-HRP (REF) diluted in PBS BSA 1%. TMB SureBlue (KPL, REF) and H2SO4 IN (VWR, USA) were used for spectrophotometric detection (450 nm).

Factor XIa, sequence (P03951 19-387 limits assumed): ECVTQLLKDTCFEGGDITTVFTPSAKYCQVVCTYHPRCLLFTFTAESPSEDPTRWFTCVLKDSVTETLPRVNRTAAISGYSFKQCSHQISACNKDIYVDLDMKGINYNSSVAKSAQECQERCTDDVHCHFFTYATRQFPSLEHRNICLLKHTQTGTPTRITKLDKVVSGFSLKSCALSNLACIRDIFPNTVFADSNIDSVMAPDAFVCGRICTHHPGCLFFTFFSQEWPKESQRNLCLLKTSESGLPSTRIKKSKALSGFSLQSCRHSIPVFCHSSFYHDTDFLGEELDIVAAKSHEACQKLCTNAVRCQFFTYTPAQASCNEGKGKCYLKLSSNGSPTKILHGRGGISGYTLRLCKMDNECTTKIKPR
Factor XIa, sequence (P03951 388-625 limits assumed): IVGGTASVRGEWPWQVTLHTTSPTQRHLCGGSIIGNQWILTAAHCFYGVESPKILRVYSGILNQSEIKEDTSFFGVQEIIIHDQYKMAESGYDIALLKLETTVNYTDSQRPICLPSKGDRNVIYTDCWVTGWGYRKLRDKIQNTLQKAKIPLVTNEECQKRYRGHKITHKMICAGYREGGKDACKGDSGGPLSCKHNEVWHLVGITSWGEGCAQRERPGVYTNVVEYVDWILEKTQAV

B1: Ir-CPI: Ixodes ricinus salivary gland polypeptide, contact phase inhibitor, MW=7660 Da; sequence SEQ ID NO: 1 or SEQ ID NO: 2 (protein)
chain: ANHKGRGRPAKCKLPPDDGPCRARIPSYYFDRKTKTCKEFMYGGCEGNENNFENITTCQEECRAKKV
For B1, the “maximal median of integrated PMN fluorescence (anti-Ly6G)” value in data set [1] (at T 261 sec) is 3.02×10^6 AU. For the same molecule, the “median of integrated PMN fluorescence” value in data set [1] (at T 270 sec (end of measurement)) is given as 2.78×10^6 AU. Besides, the “PMN accumulation compared to control mice” value in data set [1] (first 4.5 min after laser injury) is on record as “drastically decreased”. In the data set with Factor XIa, the “activation of Factor XII by Factor XIa” value is “inhibit activation”. The “CD11b expressed at cell surface” value in data set [2] (neutrophils primed with TNFα, Ir-CPI 2 μM, *p<0.05) is “significant reduction”. In addition, in data set [2] (untreated neutrophils, Ir-CPI 0.65 and 2 μM), the “expression of CD11b” value is recorded as “no effect”. Moreover, the “Prothrombin Time (PT)” value in data set [3] was “no effect”. Besides, the “Thrombin Time (TT)” value in data set [3] is “no effect”. For the same molecule, in data set [3], the “dilute Russell's Viper Venom time (dRVVT)” value is given as “no effect”. For the same molecule, in data set [4], the “maximal concentration to reach to avoid solubility issues” value came to 50 mg/mL. In addition, the “tail bleeding time compared to NaCl-treated mice” value in data set [5] (High dose (20.5 mg/kg + 3.7 mg/kg/h), cancer-bearing mice) is “No significant effect”; in data set [5] (High dose (20.5 mg/kg + 3.7 mg/kg/h), cancer-free mice), “No significant effect”; in data set [5] (Low dose (10.3 mg/kg + 1.9 mg/kg/h), cancer-bearing mice), “No significant effect”; in data set [5] (Low dose (10.3 mg/kg + 1.9 mg/kg/h), cancer-free mice), “No significant effect”. For the same molecule, in data set [6], the Mean plasma concentration is 6480 ± 1020 ng/mL.
